Tm data for 47 substances are collected here from the array DNA melting data of Ke et al..

In general, Tm refers to the temperature at which the thermal transition is half complete.

The series can be described thus: melting temperature; melt of duplexes. Particulars: sodium 0.0675 M; strand 1 µM.
In the case of “CGACGTGCGACATGTGCTG+CAGCACATAGAGCACGTCG ((((((((...((((((((+))))))))...))))))))”, the melting temperature (Tm) is 56.3 °C. In the case of “CGACGTGCAACATGTGCTG+CAGCACATATTGCACGTCG ((((((((((.((((((((+)))))))).))))))))))” it was 54.3 °C; in that of “CGACGTGCCCAATGTGCTG+CAGCACATAGTGCACGTCG ((((((((.(.((((((((+)))))))).).))))))))”, 46.2 °C; in that of “CGACGTGCTAAATGTGCTG+CAGCACATAGAGCACGTCG (((((((((..((((((((+))))))))..)))))))))”, 52.9 °C. In the case of “CGACGTGCGTGATGTGCTG+CAGCACATCATGCACGTCG ((((((((.((((((((((+)))))))))).))))))))” it was 60.2 °C; in that of “CGACGTGCGACATGTGCTG+CAGCACATGTCGCACGTCG (((((((((((((((((((+)))))))))))))))))))”, 67.2 °C; in that of “CGACGTGCCGTATGTGCTG+CAGCACATGCGGCACGTCG ((((((((((.((((((((+)))))))).))))))))))”, 62.4 °C. In the case of “CGACGTGCGTGATGTGCTG+CAGCACATGACGCACGTCG ((((((((((.((((((((+)))))))).))))))))))” it was 57.8 °C; in that of “CGACGTGCATAATGTGCTG+CAGCACATACAGCACGTCG ((((((((...((((((((+))))))))...))))))))”, 48.2 °C; in that of “CGACGTGCCATATGTGCTG+CAGCACATAAGGCACGTCG (((((((((.(((((((((+))))))))).)))))))))”, 56.9 °C. In the case of “CGACGTGCTCAATGTGCTG+CAGCACATCAGGCACGTCG ((((((((...((((((((+))))))))...))))))))”, the Tm stood at 50.5 °C. As for “CGACGTGCAGAATGTGCTG+CAGCACATCCAGCACGTCG ((((((((.(.((((((((+)))))))).).))))))))”, the Tm was 51.6 °C. Regarding “CGACGTGCTCCATGTGCTG+CAGCACATAGGGCACGTCG ((((((((.(.((((((((+)))))))).).))))))))”, the Tm turned out to be 52.3 °C.

For the substance “CGACGTGCCACATGTGCTG+CAGCACATTGGGCACGTCG (((((((((..((((((((+))))))))..)))))))))”, the Tm was 55 °C. In the case of “CGACGTGCAATATGTGCTG+CAGCACATGAGGCACGTCG ((((((((...((((((((+))))))))...))))))))” it was 51.3 °C; in that of “CGACGTGCCAAATGTGCTG+CAGCACATTAGGCACGTCG (((((((((.(((((((((+))))))))).)))))))))”, 57.8 °C; in that of “CGACGTGCATGATGTGCTG+CAGCACATTCGGCACGTCG ((((((((...((((((((+))))))))...))))))))”, 50.3 °C. In the case of “CGACGTGCGACATGTGCTG+CAGCACATACTGCACGTCG ((((((((...((((((((+))))))))...))))))))” it was 49.9 °C; in that of “CGACGTGCTCGATGTGCTG+CAGCACATTGGGCACGTCG ((((((((.(.((((((((+)))))))).).))))))))”, 55.7 °C.

In the case of “CGACGTGCTGCATGTGCTG+CAGCACATCATGCACGTCG ((((((((...((((((((+))))))))...))))))))”, the melting temperature (Tm) was 52.1 °C. As to “CGACGTGCTCGATGTGCTG+CAGCACATGCAGCACGTCG (((((((((..((((((((+))))))))..)))))))))”, the Tm worked out at 52.1 °C.

Take “CGACGTGCGGTATGTGCTG+CAGCACATTGTGCACGTCG ((((((((...((((((((+))))))))...))))))))”: the Tm worked out at 47.2 °C. In the case of “CGACGTGCGTCATGTGCTG+CAGCACATCGCGCACGTCG (((((((((..((((((((+))))))))..)))))))))” it was 54.2 °C; in that of “CGACGTGCTCGATGTGCTG+CAGCACATTAAGCACGTCG (((((((((..((((((((+))))))))..)))))))))”, 51.9 °C. In the case of “CGACGTGCCCAATGTGCTG+CAGCACATAAAGCACGTCG ((((((((...((((((((+))))))))...))))))))” it was 50.1 °C; in that of “CGACGTGCTCCATGTGCTG+CAGCACATAACGCACGTCG ((((((((...((((((((+))))))))...))))))))”, 47 °C. In the case of “CGACGTGCGCGATGTGCTG+CAGCACATCTTGCACGTCG ((((((((..(((((((((+)))))))))..))))))))” it was 53.9 °C. In the case of “CGACGTGCGGAATGTGCTG+CAGCACATTATGCACGTCG ((((((((..(((((((((+)))))))))..))))))))”, the Tm is 55.4 °C. In the case of “CGACGTGCTAGATGTGCTG+CAGCACATGCAGCACGTCG (((((((((..((((((((+))))))))..)))))))))” it was 53 °C; in that of “CGACGTGCCTAATGTGCTG+CAGCACATGGTGCACGTCG ((((((((...((((((((+))))))))...))))))))”, 48.3 °C; in that of “CGACGTGCGGGATGTGCTG+CAGCACATTGAGCACGTCG ((((((((...((((((((+))))))))...))))))))”, 55.3 °C.

For “CGACGTGCACAATGTGCTG+CAGCACATTAAGCACGTCG ((((((((..(((((((((+)))))))))..))))))))”, the Tm is 49 °C.

As for “CGACGTGCCTGATGTGCTG+CAGCACATACCGCACGTCG ((((((((...((((((((+))))))))...))))))))”, the Tm is 48.1 °C. In the case of “CGACGTGCGGGATGTGCTG+CAGCACATGTCGCACGTCG (((((((((..((((((((+))))))))..)))))))))” it was 57.8 °C. Regarding “CGACGTGCCACATGTGCTG+CAGCACATAAAGCACGTCG ((((((((...((((((((+))))))))...))))))))”, the melting temperature (Tm) amounted to 49.1 °C. In the case of “CGACGTGCTCTATGTGCTG+CAGCACATTTTGCACGTCG ((((((((...((((((((+))))))))...))))))))” it was 49 °C; in that of “CGACGTGCCCGATGTGCTG+CAGCACATCAAGCACGTCG ((((((((..(((((((((+)))))))))..))))))))”, 52.8 °C; in that of “CGACGTGCTTAATGTGCTG+CAGCACATATGGCACGTCG ((((((((...((((((((+))))))))...))))))))”, 51.4 °C. In the case of “CGACGTGCCTGATGTGCTG+CAGCACATTGGGCACGTCG (((((((((..((((((((+))))))))..)))))))))” it was 57.1 °C; in that of “CGACGTGCTGTATGTGCTG+CAGCACATGCAGCACGTCG ((((((((((.((((((((+)))))))).))))))))))”, 60.3 °C; in that of “CGACGTGCTCGATGTGCTG+CAGCACATTCGGCACGTCG ((((((((...((((((((+))))))))...))))))))”, 52.3 °C. In the case of “CGACGTGCTGCATGTGCTG+CAGCACATAGCGCACGTCG ((((((((...((((((((+))))))))...))))))))” it was 54.2 °C. Take “CGACGTGCCCCATGTGCTG+CAGCACATAGCGCACGTCG ((((((((.(.((((((((+)))))))).).))))))))”: the Tm stood at 47.3 °C. In the case of “CGACGTGCTATATGTGCTG+CAGCACATATTGCACGTCG ((((((((.((((((((((+)))))))))).))))))))” it was 56 °C; in that of “CGACGTGCTAGATGTGCTG+CAGCACATGGGGCACGTCG ((((((((...((((((((+))))))))...))))))))”, 51 °C. Take “CGACGTGCTGGATGTGCTG+CAGCACATAAAGCACGTCG (((((((((..((((((((+))))))))..)))))))))”: the Tm was determined as 55.3 °C. In the case of “CGACGTGCATCATGTGCTG+CAGCACATGGGGCACGTCG ((((((((..(((((((((+)))))))))..))))))))” it was 56.5 °C.
